# Data reported in patent US20180009899A1 (CORVUS PHARMACEUTICALS, published 2018).
# T1: Cellular CD73 on MDA-MB-231 human breast cancer cells (human, UniProt P21589 27-549)
# T1 construct: whole, on cells; Endogenous CD73 on MDA-MB-231 cells; also called 5'-nucleotidase; ecto-5'-nucleotidase
# T1 sequence (looked up): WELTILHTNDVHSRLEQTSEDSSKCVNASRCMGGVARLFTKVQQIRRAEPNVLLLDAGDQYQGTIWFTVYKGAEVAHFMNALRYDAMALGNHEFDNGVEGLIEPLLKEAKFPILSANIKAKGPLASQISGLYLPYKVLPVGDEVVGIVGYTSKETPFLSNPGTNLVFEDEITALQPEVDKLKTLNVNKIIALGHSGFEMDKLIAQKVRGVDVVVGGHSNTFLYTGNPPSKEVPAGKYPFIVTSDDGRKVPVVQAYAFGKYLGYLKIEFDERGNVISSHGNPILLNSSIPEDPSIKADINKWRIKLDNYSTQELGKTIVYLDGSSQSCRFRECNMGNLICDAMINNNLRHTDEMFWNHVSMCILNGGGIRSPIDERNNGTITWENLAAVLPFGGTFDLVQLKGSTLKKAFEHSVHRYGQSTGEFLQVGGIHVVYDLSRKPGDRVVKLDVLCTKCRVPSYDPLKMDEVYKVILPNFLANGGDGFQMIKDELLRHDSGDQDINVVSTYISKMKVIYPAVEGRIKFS
# Molecular target: T1, Cellular CD73 on MDA-MB-231 human …
# Assay: flow cytometry on MDA-MB-231 cells, PE anti-human secondary
row,Binder,binding result
1,"CPX-008 (antibody, V domains shown, also called aglycosylated antibody) VH: QVQLVQSGAEVEKPGASVKVSCKASGYTFTSYWITWVRQAPGQGLEWMGDIYPGSGNTNYNEKFKTRVTITADKSTSTAYMELSSLRSEDTAVYYCAKEGGLTTEDYALDYWGQGTLVTV VL: EIVLTQSPATLSLSPGERATLSCRASKQVSTSGYSYMHWYQQKPGQAPRLLIYLASNLESGIPPRFSGSGYGTDFTLTINNIESEDAAYYFCQHSRELPFTFGQGTKVEIK",binds
2,"CPX-012 (antibody, V domains shown) VH: QVQLVQSGAEVEKPGASVKVSCKASGYTFTSYWITWVRQAPGQGLEWMGDIYPGSGNTNYNEKFKTRVTITADKSTSTAYMELSSLRSEDTAVYYCAKEGGLTTEDYALDYWGQGTLVTV VL: AIQLTQSPSSLSASVGDRVTITCRASKQVSTSGYSYMHWYQQKPGQAPRLLIYLASNLESGVPSRFSGSGSGTDFTFTISSLEAEDAATYYCQHSRELPFTFGQGTKVEIK",binds
3,"CPX-014 (antibody, V domains shown, D at Kabat 27A of CDR L1, made in the CPX-006 light chain) VH: QVQLVQSGAEVEKPGASVKVSCKASGYTFTSYWITWVRQAPGQGLEWMGDIYPGSGNTNYNEKFKTRVTITADKSTSTAYMELSSLRSEDTAVYYCAKEGGLTTEDYALDYWGQGTLVTV VL: EIVLTQSPATLSLSPGERATLSCRASKDVSTSGYSYMHWYQQKPGQAPRLLIYLASNLESGIPPRFSGSGYGTDFTLTINNIESEDAAYYFCQHSRELPFTFGQGTKVEIK",binds
4,"CPX-011 (antibody, V domains shown, A at Kabat 27C of CDR L1, made in the CPX-006 light chain) VH: QVQLVQSGAEVEKPGASVKVSCKASGYTFTSYWITWVRQAPGQGLEWMGDIYPGSGNTNYNEKFKTRVTITADKSTSTAYMELSSLRSEDTAVYYCAKEGGLTTEDYALDYWGQGTLVTV VL: EIVLTQSPATLSLSPGERATLSCRASKNVATSGYSYMHWYQQKPGQAPRLLIYLASNLESGIPPRFSGSGYGTDFTLTINNIESEDAAYYFCQHSRELPFTFGQGTKVEIK",binds

# More lines, now with the values ahead:
row,binding result,Binder
1,binds,"CPX-009 (antibody, V domains shown, A at Kabat 27A of CDR L1, made in the CPX-006 light chain) VH: QVQLVQSGAEVEKPGASVKVSCKASGYTFTSYWITWVRQAPGQGLEWMGDIYPGSGNTNYNEKFKTRVTITADKSTSTAYMELSSLRSEDTAVYYCAKEGGLTTEDYALDYWGQGTLVTV VL: EIVLTQSPATLSLSPGERATLSCRASKAVSTSGYSYMHWYQQKPGQAPRLLIYLASNLESGIPPRFSGSGYGTDFTLTINNIESEDAAYYFCQHSRELPFTFGQGTKVEIK"
2,binds,"CPX-006 (glycosylated) (antibody, human IgG1, kappa, N297Q, V domains shown, N-linked glycosylation on CDR L1 (NXS motif at Kabat 27A-27C), Humanized anti-CD73 antibody with the CDRs of mouse 1E9; also called BAP094-hum07; glycosylated antibody) VH: QVQLVQSGAEVEKPGASVKVSCKASGYTFTSYWITWVRQAPGQGLEWMGDIYPGSGNTNYNEKFKTRVTITADKSTSTAYMELSSLRSEDTAVYYCAKEGGLTTEDYALDYWGQGTLVTVSS VL: EIVLTQSPATLSLSPGERATLSCRASKNVSTSGYSYMHWYQQKPGQAPRLLIYLASNLESGIPPRFSGSGYGTDFTLTINNIESEDAAYYFCQHSRELPFTFGQGTKVEIKR"
